From publication PMC4753445

Biological target: AKT1 substrate 1 (AKT1S1), Flag-tagged (UniProt Q96B36)
Assay: co-IP; 14-3-3 co-expressed with AKT1S1 (or 2SE) in HEK293T cells, with or without overexpressed PKM2 or PKM2 K270M; 14-3-3 co-immunoprecipitated with AKT1S1 detected by blot

Sequence of 14-3-3 (P63104 whole entry): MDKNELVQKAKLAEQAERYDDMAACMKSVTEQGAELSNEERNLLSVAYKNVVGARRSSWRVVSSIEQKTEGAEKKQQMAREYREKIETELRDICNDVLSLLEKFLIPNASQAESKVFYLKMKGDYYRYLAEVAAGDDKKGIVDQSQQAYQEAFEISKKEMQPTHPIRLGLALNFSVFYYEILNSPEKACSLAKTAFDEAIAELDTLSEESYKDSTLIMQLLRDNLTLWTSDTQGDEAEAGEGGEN

fold increase of the co-precipitate with PKM2 overexpressed against without PKM2: > 3 fold
Substance: 14-3-3 (from UniProt P63104 1-245) (natural protein)
